According to patent US9994628B2, “Peptides and combination of peptides for use in immunotherapy against various tumors” (IMMATICS BIOTECHNOLOGIES GMBH, priority 2015, dated 2018):

biological target: HLA-A*02:01 (Homo sapiens, UniProt P04439, D140Y/D185E/D98H/E176V/E277Q/G131W/G231S/I119V/I121R/I166T/I218V/L300P/L318F/N151K/N90K/P208A/P217A/Q86G/Q94H/R138H/R169H/T345S); experiment: MHC binding assay: UV-ligand exchange and β2m ELISA (peptide exchange yield, Table 7); settings: binding of HLA-class I restricted peptides to HLA-A*02:01, UV-ligand exchange
From the text: Candidate peptides for T cell based therapies according to the present invention were further tested for their MHC binding capacity (affinity). The individual peptide-MHC complexes were produced by UV-ligand exchange, where a UV-sensitive peptide is cleaved upon UV-irradiation, and exchanged with the peptide of interest as analyzed. Only peptide candidates that can effectively bind and stabilize the peptide-receptive MHC molecules prevent dissociation of the MHC complexes. To determine the yield of the exchange reaction, an ELISA was performed based on the detection of the light chain (β2 m) of stabilized MHC complexes. The assay was performed as generally described in Rodenko et al. (Rodenko et al., 2006).
96 well MAXISorp plates (NUNC) were coated over night with 2 ug/ml streptavidin in PBS at room temperature, washed 4× and blocked for 1 h at 37° C. in 2% BSA containing blocking buffer. Refolded HLA-A*02:01/MLA-001 monomers served as standards, covering the range of 15-500 ng/ml. Peptide-MHC monomers of the UV-exchange reaction were diluted 100 fold in blocking buffer. Samples were incubated for 1 h at 37° C., washed four times, incubated with 2 ug/ml HRP conjugated anti-β2 m for 1 h at 37° C., washed again and detected with TMB solution that is stopped with […]. Absorption was measured at 450 nm. Candidate peptides that show a high exchange yield (preferably higher than 50%, most preferred higher than 75%) are generally preferred for a generation and production of antibodies or fragments thereof, and/or T cell receptors or fragments thereof, as they show sufficient avidity to the MHC molecules and prevent dissociation of the MHC complexes.

Substance | Peptide exchange (MHC class I binding score, peptide exchange yield)
92 (RLFEEVLGV; listed as Homo sapiens) [compound 92] | ++++ (≥75% = ++++)
85 (KLLDKPEQFL; listed as Homo sapiens) [compound 85] | ++ (≥20% = ++)
21 (YLMDDFSSL; listed as Homo sapiens) [compound 21] | +++ (≥50% = +++)
74 (GLAFLPASV; listed as Homo sapiens) [compound 74] | ++ (≥20% = ++)
52 (TIGIPFPNV; listed as Homo sapiens) [compound 52] | ++ (≥20% = ++)
173 (RLIDIYKNV; listed as Homo sapiens) [compound 173] | +++ (≥50% = +++)
162 (GLLGNLLTSL; listed as Homo sapiens) [compound 162] | +++ (≥50% = +++)
178 (SLVSWQLLL; listed as Homo sapiens) [compound 178] | ++++ (≥75% = ++++)
103 (YLADTVQKL; listed as Homo sapiens) [compound 103] | ++ (≥20% = ++)
116 (ALLSSVAEA; listed as Homo sapiens) [compound 116] | ++ (≥20% = ++)
87 (KLLSLLEEA; listed as Homo sapiens) [compound 87] | +++ (≥50% = +++)
27 (GLLGKVTSV; listed as Homo sapiens) [compound 27] | +++ (≥50% = +++)
97 (KLFEKSTGL; listed as Homo sapiens) [compound 97] | +++ (≥50% = +++)
139 (IILENIQSL; listed as Homo sapiens) [compound 139] | +++ (≥50% = +++)
31 (GLLETTGLLAT; listed as Homo sapiens) [compound 31] | +++ (≥50% = +++)
80 (VLTGQVHEL; listed as Homo sapiens) [compound 80] | +++ (≥50% = +++)
22 (LMYPYIYHV; listed as Homo sapiens) [compound 22] | +++ (≥50% = +++)

Substance | Peptide exchange (MHC class I binding score, peptide exchange yield)
69 (LKVLKADVVL; listed as Homo sapiens) [compound 69] | ++ (≥20% = ++)
188 (VLGEEQEGV; listed as Homo sapiens) [compound 188] | ++ (≥20% = ++)
155 (TLDSYLKAV; listed as Homo sapiens) [compound 155] | ++ (≥20% = ++)
141 (NIDINNNEL; listed as Homo sapiens) [compound 141] | ++ (≥20% = ++)
17 (GLLPSAESIKL; listed as Homo sapiens) [compound 17] | ++++ (≥75% = ++++)
182 (GLQDGFQITV; listed as Homo sapiens) [compound 182] | +++ (≥50% = +++)
5 (GLVDIMVHL; listed as Homo sapiens) [compound 5] | +++ (≥50% = +++)
144 (FLISQTPLL; listed as Homo sapiens) [compound 144] | +++ (≥50% = +++)
57 (TLYPGRFDYV; listed as Homo sapiens) [compound 57] | ++ (≥20% = ++)
93 (RLYGYFHDA; listed as Homo sapiens) [compound 93] | ++ (≥20% = ++)
137 (KLIYKDLVSV; listed as Homo sapiens) [compound 137] | ++ (≥20% = ++)
19 (KVFELDLVTL; listed as Homo sapiens) [compound 19] | ++ (≥20% = ++)
79 (TVLEEIGNRV; listed as Homo sapiens) [compound 79] | ++ (≥20% = ++)
128 (SILTNISEV; listed as Homo sapiens) [compound 128] | ++ (≥20% = ++)
151 (DISKRIQSL; listed as Homo sapiens) [compound 151] | ++ (≥20% = ++)
164 (MLIIRVPSV; listed as Homo sapiens) [compound 164] | +++ (≥50% = +++)
11 (LLDPKTIFL; listed as Homo sapiens) [compound 11] | +++ (≥50% = +++)

Other lines, results leading:

Peptide exchange (MHC class I binding score, peptide exchange yield) | Substance
++ (≥20% = ++) | 199 (SVADLAHVL; listed as Homo sapiens) [compound 199]
+++ (≥50% = +++) | 256 (FLNDIFERI; listed as Homo sapiens) [compound 256]
+++ (≥50% = +++) | 193 (ALFHMNILL; listed as Homo sapiens) [compound 193]
+++ (≥50% = +++) | 270 (TLLTFFHEL; listed as Homo sapiens) [compound 270]
+++ (≥50% = +++) | 237 (ALLEQTGDMSL; listed as Homo sapiens) [compound 237]
+++ (≥50% = +++) | 231 (LLDDIFIRL; listed as Homo sapiens) [compound 231]
+++ (≥50% = +++) | 260 (ALNESLVEC; listed as Homo sapiens) [compound 260]
+++ (≥50% = +++) | 191 (AAIEIFEKV; listed as Homo sapiens) [compound 191]
+++ (≥50% = +++) | 190 (SLSTELFKV; listed as Homo sapiens) [compound 190]
+++ (≥50% = +++) | 261 (GLAALAVHL; listed as Homo sapiens) [compound 261]
++ (≥20% = ++) | 198 (ILTNKVVSV; listed as Homo sapiens) [compound 198]
+++ (≥50% = +++) | 283 (ALSELLQQV; listed as Homo sapiens) [compound 283]
++ (≥20% = ++) | 221 (IMLNSVEEI; listed as Homo sapiens) [compound 221]
++ (≥20% = ++) | 264 (TLHDQVHLL; listed as Homo sapiens) [compound 264]
++ (≥20% = ++) | 219 (GVVPTIQKV; listed as Homo sapiens) [compound 219]
+++ (≥50% = +++) | 200 (IMPTFDLTKV; listed as Homo sapiens) [compound 200]
+++ (≥50% = +++) | 274 (TLYNPERTITV; listed as Homo sapiens) [compound 274]
+++ (≥50% = +++) | 248 (VLMQDSRLYL; listed as Homo sapiens) [compound 248]
++ (≥20% = ++) | 208 (HLNNDRNPL; listed as Homo sapiens) [compound 208]
+++ (≥50% = +++) | 230 (KLLNMIFSI; listed as Homo sapiens) [compound 230]
++ (≥20% = ++) | 194 (KLLEEVQLL; listed as Homo sapiens) [compound 194]
++ (≥20% = ++) | 222 (LLTGVFAQL; listed as Homo sapiens) [compound 222]
++ (≥20% = ++) | 215 (QIADIVTSV; listed as Homo sapiens) [compound 215]
++ (≥20% = ++) | 229 (YLYELEHAL; listed as Homo sapiens) [compound 229]
+++ (≥50% = +++) | 251 (LLWGNLPEI; listed as Homo sapiens) [compound 251]
++++ (≥75% = ++++) | 234 (VLLNEILEQV; listed as Homo sapiens) [compound 234]
++ (≥20% = ++) | 275 (AVPPPPSSV; listed as Homo sapiens) [compound 275]
+++ (≥50% = +++) | 214 (ALFETLIQL; listed as Homo sapiens) [compound 214]
